This note sets out measurements from patent US10961297 (SANFORD BURNHAM PREBYS MEDICAL DISCOVERY INSTITUTE, dated 2021).

Substitutions are numbered along the chain they refer to. Names may count otherwise.

One may read the Kd as the equilibrium constant for the complex coming apart. Low readings indicate a tighter complex, high ones a looser complex. By koff is commonly meant the first-order rate constant of dissociation. The term kon denotes the rate constant with which the complex forms.

The target in test [1] is human BTLA-Fc (human) (UniProt Q7Z6A9). Put plainly: SPR, human BTLA-Fc immobilised, Fc fusion as analyte, monovalent (1:1) analysis. A general note: Surface plasmon resonance follows binding to a sensor surface in real time, without labels.
Test [2] has the same target. Put plainly: SPR, human BTLA-Fc immobilised, Fc fusion as analyte, bivalent analysis.
The target is the same in test [3]. Put plainly: SPR, human BTLA-Fc immobilised, Fc fusion as analyte, monovalent analysis.
Test [4] has as its target T1, human HVEM A102P mutant on 293T cells (human, UniProt Q92956 39-283).
T1 construct: also called Ala^102
T1 sequence: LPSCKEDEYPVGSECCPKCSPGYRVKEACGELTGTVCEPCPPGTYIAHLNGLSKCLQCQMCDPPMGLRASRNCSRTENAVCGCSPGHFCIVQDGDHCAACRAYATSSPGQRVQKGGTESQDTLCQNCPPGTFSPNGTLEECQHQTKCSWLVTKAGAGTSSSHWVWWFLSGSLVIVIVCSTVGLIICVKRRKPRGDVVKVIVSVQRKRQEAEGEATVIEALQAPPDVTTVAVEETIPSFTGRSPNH
Description: flow cytometry, CD160-Fc on 293T cells with mutant HVEM.

For test [5], the target named is T2, human HVEM P59S mutant on 293T cells (human, UniProt Q92956 39-283).
T2 construct: also called Pro^59
T2 sequence: T1 sequence with P21S, P64A
Described as above.

In test [6] the target is T3, human HVEM T82P mutant on 293T cells (human, UniProt Q92956 39-283).
T3 construct: also called Thr^82
T3 sequence: T1 sequence with T44P, P64A
The description is as above.

Test [7] concerns the target T4, human HVEM G72D mutant on 293T cells (human, UniProt Q92956 39-283).
T4 construct: also called Gly^72
T4 sequence: T1 sequence with G34D, P64A
The description is as above.

Test [8] has as its target T5, human HVEM Y61C mutant on 293T cells (human, UniProt Q92956 39-283).
T5 construct: also called Tyr^61
T5 sequence: T1 sequence with Y23C, P64A
Described as above.

The target in test [9] is T6, human HVEM R109W mutant on 293T cells (human, UniProt Q92956 39-283).
T6 construct: also called Arg^109
T6 sequence: T1 sequence with P64A, R71W
The test is described as above.

Test [10] has as its target T7, human HVEM G60D mutant on 293T cells (human, UniProt Q92956 39-283).
T7 construct: also called Gly^60
T7 sequence: T1 sequence with G22D, P64A
The test is described as above.

Test [11] deals with T8, human BTLA H127D mutant on EL4 cells (human, UniProt Q7Z6A9 31-289).
T8 construct: whole, on cells; also called His127
Put plainly: flow cytometry, EL4 cells transduced with mutant human BTLA, HVEM-Fc then anti-human Fc [panel B].

Test [12] addresses T9, human BTLA R42D mutant on EL4 cells (human, UniProt Q7Z6A9 31-289).
T9 construct: whole, on cells; also called Arg42
Described as above.

The target of test [13] is T10, human BTLA P59A mutant on EL4 cells (human, UniProt Q7Z6A9 31-289).
T10 construct: whole, on cells; also called Pro59
Described as above.

The target of test [14] is T11, human BTLA Q37A mutant on EL4 cells (human, UniProt Q7Z6A9 31-289).
T11 construct: whole, on cells; also called Gln37
The description is as above.

Test [15] has as its target T12, BTLA (form in the assay not stated) (UniProt Q7Z6A9 31-157).
T12 sequence: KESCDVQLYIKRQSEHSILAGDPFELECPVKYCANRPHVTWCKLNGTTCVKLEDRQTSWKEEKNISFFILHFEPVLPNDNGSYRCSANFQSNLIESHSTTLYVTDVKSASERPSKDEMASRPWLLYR
Put plainly: not told.

In test [16] the target is T13, wild-type human BTLA on cells (human, UniProt Q7Z6A9 31-289).
T13 construct: whole, on cells
Description: co-expression on 293T cells, loss of staining by Fc ligands in trans.

In test [17] the target is T3, human HVEM T82P mutant on 293T cells. Put plainly: flow cytometry, LIGHT on 293T cells with mutant HVEM. (Flow cytometry measures light scatter and fluorescence of single cells or particles in a stream.)
Test [18] addresses T7, human HVEM G60D mutant on 293T cells. The test is described as above.

Sequence of human BTLA-Fc (human) (Q7Z6A9 26-150 limits assumed): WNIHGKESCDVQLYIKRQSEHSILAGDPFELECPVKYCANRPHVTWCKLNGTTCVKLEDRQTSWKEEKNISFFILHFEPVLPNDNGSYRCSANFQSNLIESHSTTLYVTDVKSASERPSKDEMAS

With human CMV UL144-Fc (Fc fusion), the Kd in test [1] is 295 nM. In test [2], this molecule showed a ka1 of 7810 M⁻¹ s⁻¹, a ka2 of 1.39e-05, a kd1 of 0.0051 s⁻¹ and a kd2 of 0.00289 s⁻¹. In [3], the koff came out at 0.00476 s⁻¹ and the kon was 16100 M⁻¹ s⁻¹.
Molecule “human HVEM-Fc (from UniProt Q92956 39-184) (Fc fusion)” had a Kd in test [1] of 177 nM. In test [2], the ka1 came to 15300 M⁻¹ s⁻¹, the ka2 worked out at 0.0573 M⁻¹ s⁻¹, the kd1 amounted to 0.00902 s⁻¹ and the kd2 is 2.05 s⁻¹. Also, in [3], the koff amounted to 0.0066 s⁻¹ and the kon is 37400 M⁻¹ s⁻¹.

B1: CD160-Fc (Fc fusion)
chain: INITSSASQEGTRLNLICTVWHKKEEAEGFVVFLCKDRSGDCSPETSLKQLRLKRDPGIDGVGEISSQLMFTISQVTPLHSGTYQCCARSQKSGIRLQGHFFSILFTETGNYTVTGLKQRQHLEFSHNEGTLS
In the case of B1, the binding result in test [4], in [5], in test [6], in test [7], in test [8] and in test [9] was “no binding” throughout. Moreover, in test [10], the binding result is recorded as “no binding”.

B2: human HVEM-Fc (Fc fusion)
chain: LPSCKEDEYPVGSECCPKCSPGYRVKEACGELTGTVCEPCPPGTYIAHLNGLSKCLQCQMCDPAMGLRASRNCSRTENAVCGCSPGHFCIVQDGDHCAACRAYATSSPGQRVQKGGTESQDTLCQNCPPGTFSPNGTLEECQHQTK
notes: also called parental HVEM-Fc; not shown: human IgG Fc region
As for B2, the binding result in test [11], in test [12], in test [13] and in [14] was “no binding” throughout.

B3: HVEM-RTWA (HVEM-Fc mutein with S58R, G68T, L70W and L90A) (Fc fusion)
chain: B2 chain with S20R, G30T, L32W, L52A
notes: also called RTWA mutant; HVEM^RTWA Fc; not shown: human IgG Fc region
For B3, in test [15], the “fold enhancement of BTLA affinity (against HVEM-RA)” value was found to be 10 fold.

B4: wild-type human HVEM on 293T cells (receptor)
chain: T1 sequence with P64A
notes: also called TNFRSF14
Regarding B4, the binding result in test [16] is reported as “binds”.

B5: LIGHT (ligand)
chain: DGPAGSWEQLIQERRSHEVNPAAHLTGANSSLTGSGGPLLWETQLGLAFLRGLSYHDGALVVTKAGYYYIYSKVQLGGVGCPLGLASTITHGLYKRTPRYPEELELLVSQQSPCGRATSSSRVWWDSSFLGGVVHLEAGEKVVVRVLDERLVRLRDGTRSYFGAFMV
notes: also called TNFSF ligand LIGHT
Turning to B5, the binding result in test [17] and in [18] was “no binding” each time.
